Among the data in patent publication US20190282654A1 (OHIO STATE INNOVATION FOUNDATION, published 2019) are IC50 values, retold here.

Broadly, the IC50 is the concentration needed to halve the response being measured. A lower IC50 goes with greater potency in that assay.

This experiment deals with T1, GST-NEMO(1-196) (UniProt Q9Y6K9 1-196).
T1 construct: range 1-196; Expressed in E. coli from pGEX4T3-GST-NEMO(1-196) and purified on glutathione-Sepharose; Used with the GST tag in the HTRF assay (30 nM); also called Recombinant GST-NEMO; NF-κB essential modifier; not shown: glutathione S-transferase (GST) tag encoded by the pGEX4T3 vector
Description: HTRF competition, NEMO-IKK interaction (FIG. 6). Here is the method: The plate was incubated for 2 h at room temperature. […] The data was analyzed using GraphPad Prism 6.0 and IC₅₀ values were obtained by fitting the data to the dose-response inhibition curves.
Background: TR-FRET usually uses a lanthanide donor and a delayed reading to cut background.

Square brackets hold non-standard residues; d marks the D form. Ends that are not written are not given here. 2Nal = N[C@@H](Cc1ccc2ccccc2c1)C(=O)O

T1 sequence (Q9Y6K9 1-196): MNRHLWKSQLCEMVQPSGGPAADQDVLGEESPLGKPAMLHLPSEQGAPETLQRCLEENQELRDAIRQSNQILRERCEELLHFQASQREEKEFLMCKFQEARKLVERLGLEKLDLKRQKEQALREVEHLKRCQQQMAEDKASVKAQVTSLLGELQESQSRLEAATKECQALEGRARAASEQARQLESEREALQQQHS

In turn, RRRR[2Nal]FCALDWSWLQC (cysteine pairing not given here) [RRRRΦFCALDWSWLQC] had a half-inhibitory concentration (IC50) of 1400 nM.
Next, RRRR[2Nal]FTALDWSWLQT [RRRRΦFTALDWSWLQT]: 1600 nM.
